17 molecules from publication PMC10681739, “High-throughput data and modeling reveal insights into the mechanisms of cooperative DNA-binding by transcription factor proteins” can be followed below.

T1: ETS1 (Homo sapiens, UniProt P14921)
T1 sequence: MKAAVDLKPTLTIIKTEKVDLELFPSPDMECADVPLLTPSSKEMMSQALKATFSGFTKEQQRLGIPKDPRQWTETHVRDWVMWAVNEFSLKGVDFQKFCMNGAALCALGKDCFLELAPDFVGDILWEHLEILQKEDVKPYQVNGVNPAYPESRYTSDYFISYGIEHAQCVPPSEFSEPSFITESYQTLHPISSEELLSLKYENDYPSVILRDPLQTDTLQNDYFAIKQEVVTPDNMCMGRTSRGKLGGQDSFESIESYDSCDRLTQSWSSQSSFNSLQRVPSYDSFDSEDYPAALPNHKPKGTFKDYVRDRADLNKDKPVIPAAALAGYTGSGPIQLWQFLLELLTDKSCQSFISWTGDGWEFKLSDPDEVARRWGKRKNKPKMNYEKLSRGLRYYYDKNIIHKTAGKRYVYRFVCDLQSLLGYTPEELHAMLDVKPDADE

B1: Table S2 C row 123 (dsDNA)
DNA 1: ATGCAGAAGGAATGCTGTGGTAGACAGCATTCCTTT
DNA 2: AAAGGAATGCTGTCTACCACAGCATTCCTTCTGCAT
B2: Table S2 C row 60 (dsDNA)
DNA 1: AGACTCAGGTGGTAAACCGCAGGCCATTTACATACC
DNA 2: GGTATGTAAATGGCCTGCGGTTTACCACCTGAGTCT
B3: Table S2 C row 47 (dsDNA)
DNA 1: CCTACAAATTCCAGCTGTGGTCAGCTGGTGAGCTCT
DNA 2: AGAGCTCACCAGCTGACCACAGCTGGAATTTGTAGG
B4: Table S2 C row 130 (dsDNA)
DNA 1: AATAATAGAGAAGACACCACAGTTGCCATGGTATTA
DNA 2: TAATACCATGGCAACTGTGGTGTCTTCTCTATTATT
B5: Table S2 C row 27 (dsDNA)
DNA 1: AAAACAAGAACCAAAACCACAAGAACCACAAGAACC
DNA 2: GGTTCTTGTGGTTCTTGTGGTTTTGGTTCTTGTTTT
B6: Table S2 C row 192 (dsDNA)
DNA 1: CAAGGTGGCAGTGATTGTGGCCGGCCACCTATCTGA
DNA 2: TCAGATAGGTGGCCGGCCACAATCACTGCCACCTTG
B7: Table S2 C row 13 (dsDNA)
DNA 1: AACTCACTAGTGTTTTGAGGTTTTAATTGACACCAC
DNA 2: GTGGTGTCAATTAAAACCTCAAAACACTAGTGAGTT
B8: Table S2 C row 112 (dsDNA)
DNA 1: ACTGTCAAACATTCGACCACAATCTCTGAGGCTGGG
DNA 2: CCCAGCCTCAGAGATTGTGGTCGAATGTTTGACAGT
B9: Table S2 B row 1578 (dsDNA)
DNA 1: GGCTTCCTGCCCAACTACCAAGAAAAAGTCACAAAG
DNA 2: CTTTGTGACTTTTTCTTGGTAGTTGGGCAGGAAGCC
B10: Table S2 C row 82 (dsDNA)
DNA 1: ATTCTAAAATTGGACTGTGGTAAGGGTTGCACAACT
DNA 2: AGTTGTGCAACCCTTACCACAGTCCAATTTTAGAAT
B11: Table S2 C row 131 (dsDNA)
DNA 1: GAGGCATTATAGAAAACCGCAAGATTTTAGTCTGAG
DNA 2: CTCAGACTAAAATCTTGCGGTTTTCTATAATGCCTC
B12: Table S2 B row 1078 (dsDNA)
DNA 1: TGCAGCTTCCTGTCTGAGGCTTTTTGGTCCTTTCAT
DNA 2: ATGAAAGGACCAAAAAGCCTCAGACAGGAAGCTGCA
B13: Table S2 C row 197 (dsDNA)
DNA 1: TTGAACTTAGTAGCAACCACACATGGCCATTATTTG
DNA 2: CAAATAATGGCCATGTGTGGTTGCTACTAAGTTCAA
B14: Table S2 C row 155 (dsDNA)
DNA 1: CTCTTTGGCCTTGTCTGTGGTTCTACCAAATCCCAT
DNA 2: ATGGGATTTGGTAGAACCACAGACAAGGCCAAAGAG
B15: Table S2 C row 107 (dsDNA)
DNA 1: TGGCTGAGGGTCTTCTGTGGGTGGACGCATGATTAA
DNA 2: TTAATCATGCGTCCACCCACAGAAGACCCTCAGCCA
B16: Table S2 C row 175 (dsDNA)
DNA 1: CATCTCAAAGCCTCCTGTGGGTGGAGATGGAATGTG
DNA 2: CACATTCCATCTCCACCCACAGGAGGCTTTGAGATG
B17: Table S2 C row 159 (dsDNA)
DNA 1: GGAGAGGAGAAAATGCCCACAGGGTACATGGAAAGC
DNA 2: GCTTTCCATGTACCCTGTGGGCATTTTCTCCTCTCC

The target in the data set is T1, ETS1. The data set can be described thus: gcPBM; 1 nM ETS1. The following applies: tags: N-terminal GST (pDEST15), kept (PMC6008103); label: surface-attached array probe.
B1: the binding signal was 407 PBM fluorescence, median of replicate spots.
For B2 the value was 408 PBM fluorescence, median of replicate spots; for B3, 408 PBM fluorescence, median of replicate spots; for B4, 414 PBM fluorescence, median of replicate spots.
Take B5: the binding signal is 420 PBM fluorescence, median of replicate spots.
For B6 the value was 408 PBM fluorescence, median of replicate spots.
The value for B7 was 420 PBM fluorescence, median of replicate spots; that for B8 was 409 PBM fluorescence, median of replicate spots.
With B9, the binding signal is 12500 PBM fluorescence, median of replicate spots.
Regarding B10, the binding signal was 420 PBM fluorescence, median of replicate spots.
For B11 the value was 420 PBM fluorescence, median of replicate spots.
For B12 the value was 12900 PBM fluorescence, median of replicate spots; for B13, 416 PBM fluorescence, median of replicate spots; for B14, 414 PBM fluorescence, median of replicate spots.
For B15 the value was 417 PBM fluorescence, median of replicate spots.
As for B16, the binding signal was 414 PBM fluorescence, median of replicate spots.
The value for B17 was 409 PBM fluorescence, median of replicate spots.
